The target in the assay is branched K11/K48 triubiquitin (Homo sapiens) (UniProt P0CG48). As to the kind of experiment: NMR. The following applies: modification not given.

“And” between values parts separate entries of the source, which are not always exact repeats. Equal entries are not always repeated.

Sequence of hHR23A UBA2 UBA2, P54725 (P54725 315-361): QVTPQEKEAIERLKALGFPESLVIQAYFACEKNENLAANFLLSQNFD

hHR23A UBA2 UBA2, P54725: the Kd (as a rule, the constant that tells how readily two partners part at equilibrium) was 26 µM and 248 µM.
